# Measurements published in patent US20260207732A1.
# Key:
# [1] = target: Mut18 (Influenza A virus A/Brisbane/02/2018 (H1N1)); test: BLI (Octet) after 7D37C and trypsin; HA on Ni-NTA tips
# [2] = target: Mut10 (Influenza A virus A/Brisbane/02/2018 (H1N1)); test: as above
# [3] = target: Mut24 (Influenza A virus A/Brisbane/02/2018 (H1N1)); test: as above
# [4] = target: Mut23 (Influenza A virus A/Brisbane/02/2018 (H1N1)); test: as above
# [5] = target: Mut17 (Influenza A virus A/Brisbane/02/2018 (H1N1)); test: as above
# [6] = target: Mut27 (Influenza A virus A/Brisbane/02/2018 (H1N1)); test: as above
# [7] = target: Mut24 (Influenza A virus A/Brisbane/02/2018 (H1N1)); test: BLI (Octet) after 7D37C and trypsin; footnote to the marked cell
# [8] = target: Mut18 (Influenza A virus A/Brisbane/02/2018 (H1N1)); test: BLI (Octet), HA-foldon-His on Ni-NTA tips, IgG in solution
# [9] = target: Mut10 (Influenza A virus A/Brisbane/02/2018 (H1N1)); test: as above
# [10] = target: Mut24 (Influenza A virus A/Brisbane/02/2018 (H1N1)); test: as above
# [11] = target: Mut23 (Influenza A virus A/Brisbane/02/2018 (H1N1)); test: as above
# [12] = target: Mut17 (Influenza A virus A/Brisbane/02/2018 (H1N1)); test: as above
# [13] = target: Mut27 (Influenza A virus A/Brisbane/02/2018 (H1N1)); test: as above
Substance,Octet response (nm) [1] [nm],Octet response (nm) [2] [nm],Octet response (nm) [3] [nm],Octet response (nm) [4] [nm],Octet response (nm) [5] [nm],Octet response (nm) [6] [nm],fold reduction of affinity (KD) against control [7] [fold],Octet response (nm) [8] [nm],Octet response (nm) [9] [nm],Octet response (nm) [10] [nm],Octet response (nm) [11] [nm],Octet response (nm) [12] [nm],Octet response (nm) [13] [nm]
CR9114 monoclonal antibody (IgG),0.464,0.729,0.0617,0.808,0.754,0.314,100,0.731,0.805,0.872,0.901,0.814,0.337
FI6v3 monoclonal antibody (IgG),0.484,0.737,0.406,0.745,0.748,0.313,,0.811,0.968,0.93,0.984,0.878,0.398
